Target: T1, Full-length, wild-type recombinant His-tagged TLK1B (human, UniProt Q9UKI8-3 1-549)
T1 construct: wild-type, full-length TLK1B; also called His-TLK1B; recombinant TLK1; source: bacterial expression plasmid, recombinant, purified according to the published literature
T1 sequence (looked up): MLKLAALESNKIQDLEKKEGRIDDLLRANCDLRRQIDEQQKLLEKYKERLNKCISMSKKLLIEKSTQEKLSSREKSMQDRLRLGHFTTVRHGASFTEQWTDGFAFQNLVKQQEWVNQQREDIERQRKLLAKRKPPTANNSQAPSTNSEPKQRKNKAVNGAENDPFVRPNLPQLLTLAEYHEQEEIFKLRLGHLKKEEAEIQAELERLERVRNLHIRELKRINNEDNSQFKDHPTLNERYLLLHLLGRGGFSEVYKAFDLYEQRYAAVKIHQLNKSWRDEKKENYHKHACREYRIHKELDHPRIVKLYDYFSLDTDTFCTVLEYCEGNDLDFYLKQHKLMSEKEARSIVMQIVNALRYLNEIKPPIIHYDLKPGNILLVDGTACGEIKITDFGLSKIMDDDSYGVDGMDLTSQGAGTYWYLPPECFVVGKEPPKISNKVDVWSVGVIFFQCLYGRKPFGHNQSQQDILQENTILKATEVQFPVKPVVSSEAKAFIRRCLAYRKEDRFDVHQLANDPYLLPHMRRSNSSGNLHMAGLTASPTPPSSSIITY
Assay: pull-down; His-TLK1B and GST-AKTIP, 1 µg of each, incubated on ice 30 min, isolated on Ni-NTA agarose beads, washed with cell lysis buffer, WB for AKTIP
Settings: both partners purified

B1: wild-type full-length human GST-AKTIP (natural protein, UniProt Q9H8T0 1-292, looked up)
chain: MNPFWSMSTSSVRKRSEGEEKTLTGDVKTSPPRTAPKKQLPSIPKNALPITKPTSPAPAAQSTNGTHASYGPFYLEYSLLAEFTLVVKQKLPGVYVQPSYRSALMWFGVIFIRHGLYQDGVFKFTVYIPDNYPDGDCPRLVFDIPVFHPLVDPTSGELDVKRAFAKWRRNHNHIWQVLMYARRVFYKIDTASPLNPEAAVLYEKDIQLFKSKVVDSVKVCTARLFDQPKIEDPYAISFSPWNPSVHDEAREKMLTQKKPEEQHNKSVHVAGLSWVKPGSVQPFSKEEKTVAT
notes: also called GST-tagged AKTIP; source: bacterial expression plasmid, recombinant, purified from bacteria according to the published literature
B1: binds.

From article PMC8830441, “Interaction of TLK1 and AKTIP as a Potential Regulator of AKT Activation in Castration-Resistant Prostate Cancer Progression” (Pathophysiology, 2021)
